Assay [1] concerns the target UNC-6ΔC (C. elegans) (UniProt P34710). Nature of the assay: SEC. (Size exclusion chromatography separates by hydrodynamic size, large species first.)
The target in assay [2] is biotinylated UNC-6ΔC (C. elegans) (UniProt P34710). Nature of the assay: SPR. A general note: In SPR one partner is held on a chip, and binding of the other changes the refractive index at the surface.
Assay [3] deals with UNC-5 N188K ectodomain on yeast (C. elegans). Nature of the assay: flow cytometry on cells.
Assay [4] concerns the target UNC-5 N18K ectodomain on yeast (C. elegans). Nature of the assay: flow cytometry on cells.
Assay [5] addresses UNC-5 ECD displayed on yeast (C. elegans). Nature of the assay: flow cytometry on cells. (A flow cytometer gives signals particle by particle.)

From paper PMC10871540 come the findings set out here.

As a reminder, the stoichiometry N is a count of units in the complex or per binding partner. The term Kd denotes the concentration at which binding is half-saturated. Low values mean tighter binding, high ones weaker binding.

Chain of biotinylated UNC-6ΔC (C. elegans) (P34710 22-461, stated change not applied): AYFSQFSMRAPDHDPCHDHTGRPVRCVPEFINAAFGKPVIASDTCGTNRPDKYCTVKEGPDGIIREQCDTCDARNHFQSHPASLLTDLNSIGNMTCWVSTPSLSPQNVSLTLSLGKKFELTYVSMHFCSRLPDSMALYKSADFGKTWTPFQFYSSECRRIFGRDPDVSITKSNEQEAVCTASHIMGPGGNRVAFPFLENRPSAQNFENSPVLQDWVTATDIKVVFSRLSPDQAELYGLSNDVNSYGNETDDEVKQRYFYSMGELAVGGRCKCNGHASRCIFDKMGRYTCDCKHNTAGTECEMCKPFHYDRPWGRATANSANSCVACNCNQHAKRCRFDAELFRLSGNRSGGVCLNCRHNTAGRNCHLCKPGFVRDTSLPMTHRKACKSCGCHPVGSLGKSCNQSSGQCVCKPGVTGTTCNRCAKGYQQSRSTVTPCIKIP
Chain of biotinylated UNC-6ΔC (P34710 22-461, stated change not applied): as above
Chain of UNC-6ΔC (C. elegans) (P34710 22-461, stated change not applied): as above
Chain of UNC-5 ECD displayed on yeast (C. elegans) (Q26261 whole entry, the tested form may be a part): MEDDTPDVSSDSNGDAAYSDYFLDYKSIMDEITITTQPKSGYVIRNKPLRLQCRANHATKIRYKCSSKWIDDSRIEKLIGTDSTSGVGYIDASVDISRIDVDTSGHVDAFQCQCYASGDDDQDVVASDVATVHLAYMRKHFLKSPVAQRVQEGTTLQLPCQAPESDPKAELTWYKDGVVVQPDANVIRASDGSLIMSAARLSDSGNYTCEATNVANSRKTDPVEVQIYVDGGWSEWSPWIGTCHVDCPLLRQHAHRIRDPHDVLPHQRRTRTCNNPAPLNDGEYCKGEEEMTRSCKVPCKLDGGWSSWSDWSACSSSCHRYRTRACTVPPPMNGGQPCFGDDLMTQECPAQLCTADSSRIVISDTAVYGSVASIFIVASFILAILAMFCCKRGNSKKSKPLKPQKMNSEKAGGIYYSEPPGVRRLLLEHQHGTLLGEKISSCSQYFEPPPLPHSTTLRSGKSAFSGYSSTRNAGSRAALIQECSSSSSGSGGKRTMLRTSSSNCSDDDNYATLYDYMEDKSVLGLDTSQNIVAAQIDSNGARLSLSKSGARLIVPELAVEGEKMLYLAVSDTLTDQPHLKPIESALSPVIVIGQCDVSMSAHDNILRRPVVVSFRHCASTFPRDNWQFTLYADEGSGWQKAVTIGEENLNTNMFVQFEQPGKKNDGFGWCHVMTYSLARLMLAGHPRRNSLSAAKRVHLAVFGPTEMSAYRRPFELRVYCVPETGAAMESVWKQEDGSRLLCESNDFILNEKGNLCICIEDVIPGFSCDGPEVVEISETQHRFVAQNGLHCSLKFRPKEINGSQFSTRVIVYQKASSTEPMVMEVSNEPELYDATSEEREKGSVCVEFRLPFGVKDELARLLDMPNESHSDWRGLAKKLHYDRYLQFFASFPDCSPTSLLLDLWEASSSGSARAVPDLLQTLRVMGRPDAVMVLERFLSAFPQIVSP

Take UNC-5 ECD (receptor): in assay [1], the stoichiometry N worked out at 1. Besides, in assay [2], the KD with heparin was 1200 nM and the Kd was 46000 nM.
UNC-5 ECD R17E R70E (receptor): in assay [2], the KD with heparin lay within 50000 to 100000 nM and the fold loss of affinity against WT UNC-5 was determined as 2 fold.
For the substance “biotinylated UNC-6ΔC (from UniProt P34710 22-461) (ligand)”, the equilibrium dissociation constant (Kd) came to 16.4 nM in assay [3] and 8.2 nM in assay [4]. In assay [5], this substance displayed a KD with heparin of 35 nM.
